Data from patent US20160272693A1 (ZEALAND PHARMA A S, published 2016).
Read-outs that look alike come from different tables or passages of the source. *1 amine or outer side, *2 acyl side, *3 side chain or, on linkers, in order; H or OH if unused. Bridges are numbered along the chain shown (N, C = ends). [ ]: non-standard residue; d: D form. The star is where a group is joined. C20 diacid = O=C(O)CCCCCCCCCCCCCCCCCCC(=O)*; γGlu = O=C(O)[C@H](CCC(=O)[*:2])N[*:1]; Hyp = O=C(O)[C@@H]1C[C@@H](O)CN1; NMeI = CC[C@H](C)[C@H](NC)C(=O)O; Aad = N[C@@H](CCCC(=O)O)C(=O)O; Orn = NCCC[C@H](N)C(=O)O; Sar = CNCC(=O)O

T1: human amylin receptor 3 (hAMYR3), hCTR2 co-expressed with human receptor activity modifying protein 3 (hRAMP3) (human, UniProt P30988 25-474; O60896 24-148)
T1 sequence (looked up) 1: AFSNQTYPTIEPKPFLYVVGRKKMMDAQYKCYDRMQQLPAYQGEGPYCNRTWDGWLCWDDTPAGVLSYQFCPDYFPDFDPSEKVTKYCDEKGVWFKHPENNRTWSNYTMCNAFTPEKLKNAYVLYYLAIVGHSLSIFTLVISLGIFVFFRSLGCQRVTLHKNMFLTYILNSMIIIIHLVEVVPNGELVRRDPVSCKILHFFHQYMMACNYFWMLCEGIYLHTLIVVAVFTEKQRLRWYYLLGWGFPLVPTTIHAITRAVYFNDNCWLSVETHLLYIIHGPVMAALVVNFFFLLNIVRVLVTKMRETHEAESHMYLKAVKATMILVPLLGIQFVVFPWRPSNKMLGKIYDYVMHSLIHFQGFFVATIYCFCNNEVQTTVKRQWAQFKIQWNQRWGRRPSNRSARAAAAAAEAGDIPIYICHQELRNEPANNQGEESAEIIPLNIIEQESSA
T1 sequence (looked up) 2: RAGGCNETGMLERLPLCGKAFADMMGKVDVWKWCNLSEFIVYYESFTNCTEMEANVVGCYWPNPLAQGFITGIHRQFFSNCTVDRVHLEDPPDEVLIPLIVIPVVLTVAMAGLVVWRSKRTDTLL


How the values were obtained:
[1] = molecular target: T1, human amylin receptor 3 (hAMYR3), hCTR2 …; assay: cell-based or functional assay
[2] = molecular target: T1, human amylin receptor 3 (hAMYR3), hCTR2 …; assay: cell-based or functional assay; remark: listed apart in the source

Binder	hAMYR3 EC50 (nM); cAMP induction [1] [nM]	hAMYR3 EC50 (nM); cAMP induction [2] [nM]
{C20 diacid}-[γGlu]RCGTATCATERLAHFLTRSSF[Sar]A[NMeI]LSSTEVGS[Orn]TP-NH2 (disulfide 3-8; SMILES CC[C@H](C)[C@@H](C(=O)N[C@@H](CC(C)C)C(=O)N[C@@H](CO)C(=O)N[C@@H](CO)C(=O)N[C@H](C(=O)N[C@@H](CCC(=O)O)C(=O)N[C@H](C(=O)NCC(=O)N[C@@H](CO)C(=O)N[C@@H](CCCN)C(=O)N[C@H](C(=O)N1CCC[C@H]1C(N)=O)[C@@H](C)O)C(C)C)[C@@H](C)O)N(C)C(=O)[C@H](C)NC(=O)CN(C)C(=O)[C@H](Cc1ccccc1)NC(=O)[C@H](CO)NC(=O)[C@H](CO)NC(=O)[C@H](CCCNC(=N)N)NC(=O)[C@@H](NC(=O)[C@H](CC(C)C)NC(=O)[C@H](Cc1ccccc1)NC(=O)[C@H](Cc1c[nH]cn1)NC(=O)[C@H](C)NC(=O)[C@H](CC(C)C)NC(=O)[C@H](CCCNC(=N)N)NC(=O)[C@H](CCC(=O)O)NC(=O)[C@@H](NC(=O)[C@H](C)NC(=O)[C@@H]1CSSC[C@H](NC(=O)[C@H](CCCNC(=N)N)NC(=O)CC[C@H](NC(=O)CCCCCCCCCCCCCCCCCCC(=O)O)C(=O)O)C(=O)NCC(=O)N[C@@H]([C@@H](C)O)C(=O)N[C@@H](C)C(=O)N[C@@H]([C@@H](C)O)C(=O)N1)[C@@H](C)O)[C@@H](C)O) [[19CD]-isoGlu-R-C( )-GTAT-C( )-ATERLAHFLTRSSF-Gly(Me)-A-Ile(Me)-LSSTEVGS-Orn-TP-NH2 (Compd. 47)]	0.19	–
{C20 diacid-γGlu}-RCNTATCATQRLADFLQRSSF[Sar]A[NMeI]LSSTEVGSNT[Hyp]-NH2 (disulfide 2-7; SMILES CC[C@H](C)[C@@H](C(=O)N[C@@H](CC(C)C)C(=O)N[C@@H](CO)C(=O)N[C@@H](CO)C(=O)N[C@H](C(=O)N[C@@H](CCC(=O)O)C(=O)N[C@H](C(=O)NCC(=O)N[C@@H](CO)C(=O)N[C@@H](CC(N)=O)C(=O)N[C@H](C(=O)N1C[C@H](O)C[C@H]1C(N)=O)[C@@H](C)O)C(C)C)[C@@H](C)O)N(C)C(=O)[C@H](C)NC(=O)CN(C)C(=O)[C@H](Cc1ccccc1)NC(=O)[C@H](CO)NC(=O)[C@H](CO)NC(=O)[C@H](CCCNC(=N)N)NC(=O)[C@H](CCC(N)=O)NC(=O)[C@H](CC(C)C)NC(=O)[C@H](Cc1ccccc1)NC(=O)[C@H](CC(=O)O)NC(=O)[C@H](C)NC(=O)[C@H](CC(C)C)NC(=O)[C@H](CCCNC(=N)N)NC(=O)[C@H](CCC(N)=O)NC(=O)[C@@H](NC(=O)[C@H](C)NC(=O)[C@@H]1CSSC[C@H](NC(=O)[C@H](CCCNC(=N)N)NC(=O)CC[C@H](NC(=O)CCCCCCCCCCCCCCCCCCC(=O)O)C(=O)O)C(=O)N[C@@H](CC(N)=O)C(=O)N[C@@H]([C@@H](C)O)C(=O)N[C@@H](C)C(=O)N[C@@H]([C@@H](C)O)C(=O)N1)[C@@H](C)O) [[19CD]-isoGlu-R-C( )-NTAT-C( )-ATQRLADFLQRSSF-Gly(Me)-A-Ile(Me)-LSSTEVGSNT-Hyp-NH2 (Compd. 49)]	0.15	–
{C20 diacid}-[γGlu]RCGTATCATERLAHFLTRSSF[Sar]A[NMeI]LSSTEVGSTT[Hyp]-NH2 (disulfide 3-8; SMILES CC[C@H](C)[C@@H](C(=O)N[C@@H](CC(C)C)C(=O)N[C@@H](CO)C(=O)N[C@@H](CO)C(=O)N[C@H](C(=O)N[C@@H](CCC(=O)O)C(=O)N[C@H](C(=O)NCC(=O)N[C@@H](CO)C(=O)N[C@H](C(=O)N[C@H](C(=O)N1C[C@H](O)C[C@H]1C(N)=O)[C@@H](C)O)[C@@H](C)O)C(C)C)[C@@H](C)O)N(C)C(=O)[C@H](C)NC(=O)CN(C)C(=O)[C@H](Cc1ccccc1)NC(=O)[C@H](CO)NC(=O)[C@H](CO)NC(=O)[C@H](CCCNC(=N)N)NC(=O)[C@@H](NC(=O)[C@H](CC(C)C)NC(=O)[C@H](Cc1ccccc1)NC(=O)[C@H](Cc1c[nH]cn1)NC(=O)[C@H](C)NC(=O)[C@H](CC(C)C)NC(=O)[C@H](CCCNC(=N)N)NC(=O)[C@H](CCC(=O)O)NC(=O)[C@@H](NC(=O)[C@H](C)NC(=O)[C@@H]1CSSC[C@H](NC(=O)[C@H](CCCNC(=N)N)NC(=O)CC[C@H](NC(=O)CCCCCCCCCCCCCCCCCCC(=O)O)C(=O)O)C(=O)NCC(=O)N[C@@H]([C@@H](C)O)C(=O)N[C@@H](C)C(=O)N[C@@H]([C@@H](C)O)C(=O)N1)[C@@H](C)O)[C@@H](C)O) [[19CD]-isoGlu-R-C( )-GTAT-C( )-ATERLAHFLTRSSF-Gly(Me)-A-Ile(Me)-LSSTEVGSTT-Hyp-NH2 (Compd. 48)]	0.26	–
{C20 diacid-γGlu}-RCQTATCATERLAHFLQRSSNNF[Sar]A[NMeI]LSSTEVGSNT[Hyp]-NH2 (disulfide 2-7; SMILES CC[C@H](C)[C@@H](C(=O)N[C@@H](CC(C)C)C(=O)N[C@@H](CO)C(=O)N[C@@H](CO)C(=O)N[C@H](C(=O)N[C@@H](CCC(=O)O)C(=O)N[C@H](C(=O)NCC(=O)N[C@@H](CO)C(=O)N[C@@H](CC(N)=O)C(=O)N[C@H](C(=O)N1C[C@H](O)C[C@H]1C(N)=O)[C@@H](C)O)C(C)C)[C@@H](C)O)N(C)C(=O)[C@H](C)NC(=O)CN(C)C(=O)[C@H](Cc1ccccc1)NC(=O)[C@H](CC(N)=O)NC(=O)[C@H](CC(N)=O)NC(=O)[C@H](CO)NC(=O)[C@H](CO)NC(=O)[C@H](CCCNC(=N)N)NC(=O)[C@H](CCC(N)=O)NC(=O)[C@H](CC(C)C)NC(=O)[C@H](Cc1ccccc1)NC(=O)[C@H](Cc1c[nH]cn1)NC(=O)[C@H](C)NC(=O)[C@H](CC(C)C)NC(=O)[C@H](CCCNC(=N)N)NC(=O)[C@H](CCC(=O)O)NC(=O)[C@@H](NC(=O)[C@H](C)NC(=O)[C@@H]1CSSC[C@H](NC(=O)[C@H](CCCNC(=N)N)NC(=O)CC[C@H](NC(=O)CCCCCCCCCCCCCCCCCCC(=O)O)C(=O)O)C(=O)N[C@@H](CCC(N)=O)C(=O)N[C@@H]([C@@H](C)O)C(=O)N[C@@H](C)C(=O)N[C@@H]([C@@H](C)O)C(=O)N1)[C@@H](C)O) [[19CD]-isoGlu-R-C( )-QTAT-C( )-ATERLAHFLQRSSNNF-Gly(Me)-A-Ile(Me)-LSSTEVGSNT-Hyp-NH2 (Compd. 99)]	–	0.59
{C20 diacid}-[γGlu]RCGTATCATERLA[Aad]FLQRSSF[Sar]A[NMeI]LSSTEVGSNT[Hyp]-NH2 (disulfide 3-8; SMILES CC[C@H](C)[C@@H](C(=O)N[C@@H](CC(C)C)C(=O)N[C@@H](CO)C(=O)N[C@@H](CO)C(=O)N[C@H](C(=O)N[C@@H](CCC(=O)O)C(=O)N[C@H](C(=O)NCC(=O)N[C@@H](CO)C(=O)N[C@@H](CC(N)=O)C(=O)N[C@H](C(=O)N1C[C@H](O)C[C@H]1C(N)=O)[C@@H](C)O)C(C)C)[C@@H](C)O)N(C)C(=O)[C@H](C)NC(=O)CN(C)C(=O)[C@H](Cc1ccccc1)NC(=O)[C@H](CO)NC(=O)[C@H](CO)NC(=O)[C@H](CCCNC(=N)N)NC(=O)[C@H](CCC(N)=O)NC(=O)[C@H](CC(C)C)NC(=O)[C@H](Cc1ccccc1)NC(=O)[C@H](CCCC(=O)O)NC(=O)[C@H](C)NC(=O)[C@H](CC(C)C)NC(=O)[C@H](CCCNC(=N)N)NC(=O)[C@H](CCC(=O)O)NC(=O)[C@@H](NC(=O)[C@H](C)NC(=O)[C@@H]1CSSC[C@H](NC(=O)[C@H](CCCNC(=N)N)NC(=O)CC[C@H](NC(=O)CCCCCCCCCCCCCCCCCCC(=O)O)C(=O)O)C(=O)NCC(=O)N[C@@H]([C@@H](C)O)C(=O)N[C@@H](C)C(=O)N[C@@H]([C@@H](C)O)C(=O)N1)[C@@H](C)O) [[19CD]-isoGlu-R-C( )-GTAT-C( )-ATERLA-Aad-FLQRSSF-Gly(Me)-A-Ile(Me)-LSSTEVGSNT-Hyp-NH2 (Compd. 55)]	0.08	0.08
